Measurements as given in paper PMC9700037 (2022).

Biological target: T1, biotin-MBP-NLRP1 M1184V (Avi-MBP-tev-NLRP1 M1184V) (human, UniProt Q9C000 1-1473, M1184V, biotin (on the Avi tag, BirA co-expressed))
T1 sequence: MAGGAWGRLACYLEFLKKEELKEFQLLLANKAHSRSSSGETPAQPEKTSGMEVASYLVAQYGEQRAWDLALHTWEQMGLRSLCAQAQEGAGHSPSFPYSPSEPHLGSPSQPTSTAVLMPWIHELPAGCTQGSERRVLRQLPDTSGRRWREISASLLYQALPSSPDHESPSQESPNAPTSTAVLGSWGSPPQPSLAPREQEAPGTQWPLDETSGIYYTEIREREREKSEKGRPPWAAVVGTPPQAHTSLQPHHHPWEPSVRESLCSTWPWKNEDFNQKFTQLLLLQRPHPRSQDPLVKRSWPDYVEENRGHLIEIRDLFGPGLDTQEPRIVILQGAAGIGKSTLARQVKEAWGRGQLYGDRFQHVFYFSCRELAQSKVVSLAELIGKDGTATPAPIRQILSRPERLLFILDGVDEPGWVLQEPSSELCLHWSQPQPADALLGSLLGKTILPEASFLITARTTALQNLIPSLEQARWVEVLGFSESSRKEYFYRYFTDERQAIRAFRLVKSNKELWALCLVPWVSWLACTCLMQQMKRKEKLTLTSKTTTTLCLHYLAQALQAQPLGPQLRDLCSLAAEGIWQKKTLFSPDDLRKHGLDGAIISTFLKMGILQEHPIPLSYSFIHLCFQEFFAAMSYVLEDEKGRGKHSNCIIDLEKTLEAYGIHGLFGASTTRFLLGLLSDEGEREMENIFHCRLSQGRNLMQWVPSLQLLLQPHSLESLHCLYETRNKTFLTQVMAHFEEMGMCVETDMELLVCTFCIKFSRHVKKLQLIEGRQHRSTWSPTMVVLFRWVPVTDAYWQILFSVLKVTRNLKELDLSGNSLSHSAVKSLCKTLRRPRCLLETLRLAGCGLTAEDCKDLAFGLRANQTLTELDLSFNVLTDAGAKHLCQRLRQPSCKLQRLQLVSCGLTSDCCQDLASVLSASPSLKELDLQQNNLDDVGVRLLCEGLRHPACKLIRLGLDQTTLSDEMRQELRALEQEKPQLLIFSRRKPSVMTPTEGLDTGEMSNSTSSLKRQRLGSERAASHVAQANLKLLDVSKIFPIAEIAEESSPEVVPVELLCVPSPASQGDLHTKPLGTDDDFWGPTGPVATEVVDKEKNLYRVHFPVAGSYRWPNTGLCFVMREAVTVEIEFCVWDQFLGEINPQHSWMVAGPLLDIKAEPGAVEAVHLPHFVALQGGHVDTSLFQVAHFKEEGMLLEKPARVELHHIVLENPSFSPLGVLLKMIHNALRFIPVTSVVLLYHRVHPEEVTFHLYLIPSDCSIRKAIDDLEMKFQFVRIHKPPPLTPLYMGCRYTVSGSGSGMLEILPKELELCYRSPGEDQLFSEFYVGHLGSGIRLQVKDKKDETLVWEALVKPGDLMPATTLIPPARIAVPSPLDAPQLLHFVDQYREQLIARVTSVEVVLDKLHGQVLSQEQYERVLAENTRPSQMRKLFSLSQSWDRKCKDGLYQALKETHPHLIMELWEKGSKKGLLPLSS
Assay: SPR; NLRP1 void (high MW) fraction

Kd: 113 nM
B1: His6-tev-DPP9 (enzyme)
chain: MATTGTPTADRGDAAATDDPAARFQVQKHSWDGLRSIIHGSRKYSGLIVNKAPHDFQFVQKTDESGPHSHRLYYLGMPYGSRENSLLYSEIPKKVRKEALLLLSWKQMLDHFQATPHHGVYSREEELLRERKRLGVFGITSYDFHSESGLFLFQASNSLFHCRDGGKNGFMVSPMKPLEIKTQCSGPRMDPKICPADPAFFSFINNSDLWVANIETGEERRLTFCHQGLSNVLDDPKSAGVATFVIQEEFDRFTGYWWCPTASWEGSEGLKTLRILYEEVDESEVEVIHVPSPALEERKTDSYRYPRTGSKNPKIALKLAEFQTDSQGKIVSTQEKELVQPFSSLFPKVEYIARAGWTRDGKYAWAMFLDRPQQWLQLVLLPPALFIPSTENEEQRLASARAVPRNVQPYVVYEEVTNVWINVHDIFYPFPQSEGEDELCFLRANECKTGFCHLYKVTAVLKSQGYDWSEPFSPGEDEFKCPIKEEIALTSGEWEVLARHGSKIWVNEETKLVYFQGTKDTPLEHHLYVVSYEAAGEIVRLTTPGFSHSCSMSQNFDMFVSHYSSVSTPPCVHVYKLSGPDDDPLHKQPRFWASMMEAASCPPDYVPPEIFHFHTRSDVRLYGMIYKPHALQPGKKHPTVLFVYGGPQVQLVNNSFKGIKYLRLNTLASLGYAVVVIDGRGSCQRGLRFEGALKNQMGQVEIEDQVEGLQFVAEKYGFIDLSRVAIHGWSYGGFLSLMGLIHKPQVFKVAIAGAPVTVWMAYDTGYTERYMDVPENNQHGYEAGSVALHVEKLPNEPNRLLILHGFLDENVHFFHTNFLVSQLIRAGKPYQLQIYPNERHSIRCPESGEHYEVTLLHFLQEYL
